Experimental findings from patent US20060035230A1 (BOYCE THOMPSON INSTITUTE FOR PLANT RESEARCH, published 2006) are described below.

The assay addresses T1, PtiDC1Δ70 (AvrPtoB lacking the first 70 amino acids) (Pseudomonas syringae pv. tomato DC3000, UniProt Q8RSY1 71-553).
T1 construct: also called AvrPtoB prey PtiDC1Δ70; avrPtoB (PtiDC1Δ70)
T1 sequence: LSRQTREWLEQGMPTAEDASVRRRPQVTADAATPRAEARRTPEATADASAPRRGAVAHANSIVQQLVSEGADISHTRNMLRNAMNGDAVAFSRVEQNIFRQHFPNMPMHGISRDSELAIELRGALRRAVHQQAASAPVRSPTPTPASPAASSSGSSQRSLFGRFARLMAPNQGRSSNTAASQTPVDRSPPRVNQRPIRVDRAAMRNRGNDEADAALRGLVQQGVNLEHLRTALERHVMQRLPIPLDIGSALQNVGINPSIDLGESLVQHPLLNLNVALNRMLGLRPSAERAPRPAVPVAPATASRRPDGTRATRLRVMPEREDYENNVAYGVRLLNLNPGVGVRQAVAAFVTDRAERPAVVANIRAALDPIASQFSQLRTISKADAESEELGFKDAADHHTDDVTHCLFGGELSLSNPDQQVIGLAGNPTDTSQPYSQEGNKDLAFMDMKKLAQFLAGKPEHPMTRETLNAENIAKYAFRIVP
Description: LexA yeast two-hybrid, AvrPtoB prey PtiDC1Δ70 against kinase bait.

B1: Pti1 kinase (enzyme)
chain: MSCFSCCDDDDMHRATDNGPFMAHNSAGNNGGQRATESAQRETQTVNIQPIAVPSIAVDELKDITDNFGSKALIGEGSYGRVYHGVLKSGRAAAIKKLDSSKQPDREFLAQVSMVSRLKDENVVELLGYCVDGGFRVLAYEYAPNGSLHDILHGRKGVKGAQPGPVLSWAQRVKIAVGAAKGLEYLHEKAQPHIIHRDIKSSNILLFDDDVAKIADFDLSNQAPDMAARLHSTRVLGTFGYHAPEYAMTGQLSSKSDVYSFGVVLLELLTGRKPVDHTLPRGQQSLVTWATPRLSEDKVKQCVDARLNTDYPPKAIAKMAAVAALCVQYEADFRPNMSIVVKALQPLLPRPVPS
notes: Bait fusion in pEG202
Consider B1, for which the binding result is “no binding”.
